B1: NEK8 (parent)
chain: VVGTPCYISPELCEGKPYNQKSDI

Variants of: B1
Experiment: protein stability index of a GFP-peptide fusion (GPS, HEK-293T) (PSI 1-6); higher = more stable
Conditions: c terminus: a fixed tail appended
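Note: lentivirally expressed fusions sorted by FACS into six bins by GFP to DsRed ratio, PSI derived from sequencing read proportions per bin multiplied by bin number.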

In order of falling protein stability index:
1. VVGTPCYISPELCEGKPYNQKSDD  4.21
2. VVGTPCYISPELCEGKPTNQKSDI  3.68
3. VVGTPCYISPELCEGKPYNQKSDK  3.63
4. VVGTPCYISPELCEGKPYNQKSDS  3.56
5. VVGTPCYISPELCEGKPYNQKSDR  3.51
6. VVGTPCYISPELCEKKPYNQKSDI  3.45
7. VVGTPCYISPELCEGKPYNQKSDA  3.45
8. VVGTPCYISPELCEGKPYNQKSDG  3.4
9. VVGTPCYISPELCEGKPYNQKSDN  3.35
10. VVGTPCYISPELCEGKPYNQKSDQ  3.33
11. VVGTPCYISPELCEGKPYDQKSDI  3.22
12. VVGTPCYISPELCEGKPYQQKSDI  3.19
13. VVGTPCYISPELCEGKPYNQKSDP  3.18
14. VVGTPCYISPELCEGKPYNQKSDH  3.18
15. VVGTPCYISPELCEVKPYNQKSDI  3.14
16. VVGTPCYISPELCEGKPYSQKSDI  3.1
17. VVGTPCYISPELCEGKPYNQKSKI  3.02
18. VVGTPCYISPELCEGKPYNQSSDI  3.01
19. VVGTPCYISPELCEGKPYNQASDI  2.99
20. VVGTPCYISPELCEGKPYTQKSDI  2.98
21. VVGTPCYISPELCEGKPYKQKSDI  2.98
22. VVGTPCYISPELCEQKPYNQKSDI  2.97
23. VVGTPCYISPELCEGKPYNQKSDM  2.95
24. VVGTPCYISPELCEGKPYNQKSHI  2.94
25. VVGTPCYISPELCEGKPYEQKSDI  2.94
26. VVGTPCYISPELCEGKPYNQKSDE  2.94
27. VVGTPCYISPELCEGKPYNQKSCI  2.93
28. VVGTPCYISPELCEDKPYNQKSDI  2.93
29. VVGTPCYISPELCEGKPYNQDSDI  2.93
30. VVGTPCYISPELCEGKPYNQQSDI  2.92
31. VVGTPCYISPELCEGKPYNQKSDC  2.91
32. VVGTPCYISPELCEGKPYMQKSDI  2.88
33. VVGTPCYISPELCETKPYNQKSDI  2.87
34. VVGTPCYISPELCEGKPYNQHSDI  2.86
35. VVGTPCYISPELCERKPYNQKSDI  2.85
36. VVGTPCYISPELCEAKPYNQKSDI  2.85
37. VVGTPCYISPELCEGKPYNQNSDI  2.85
38. VVGTPCYISPELCEHKPYNQKSDI  2.84
39. VVGTPCYISPELCEGKPYPQKSDI  2.82
40. VVGTPCYISPELCEGKPLNQKSDI  2.8
41. VVGTPCYISPELCEEKPYNQKSDI  2.8
42. VVGTPCYISPELCEGKPINQKSDI  2.79
43. VVGTPCYISPELCEGKPYAQKSDI  2.79
44. VVGTPCYISPELCEGKPYNQKSDL  2.79
45. VVGTPCYISPELCEGKPYNQGSDI  2.79
46. VVGTPCYISPELCEGKPYNQKSAI  2.74
47. VVGTPCYISPELCEGKPYVQKSDI  2.73
48. VVGTPCYISPELCENKPYNQKSDI  2.68
49. VVGTPCYISPELCEGKPYNQWSDI  2.65
50. VVGTPCYISPELCEGKPYNQKSTI  2.63
51. VVGTPCYISPELCEGKPYNQKSNI  2.56
52. VVGTPCYISPELCEPKPYNQKSDI  2.56
53. VVGTPCYISPELCEGKPYNQKSDF  2.51
54. VVGTPCYISPELCEGKPYNQCSDI  2.51
55. VVGTPCYISPELCEGKPYHQKSDI  2.48
56. VVGTPCYISPELCEGKPYGQKSDI  2.48
57. VVGTPCYISPELCEGKPYNQESDI  2.48
58. VVGTPCYISPELCEGKPYNQTSDI  2.48
59. VVGTPCYISPELCEGKPYNQKSEI  2.47
60. VVGTPCYISPELCECKPYNQKSDI  2.47
61. VVGTPCYISPELCEGKPYCQKSDI  2.46
62. VVGTPCYISPELCEGKPYRQKSDI  2.45
63. VVGTPCYISPELCEGKPYNQPSDI  2.45
64. VVGTPCYISPELCEGKPYNQKSYI  2.44
65. VVGTPCYISPELCEIKPYNQKSDI  2.41
66. VVGTPCYISPELCEGKPYNQLSDI  2.41
67. VVGTPCYISPELCEGKPYYQKSDI  2.39
68. VVGTPCYISPELCEMKPYNQKSDI  2.39
69. VVGTPCYISPELCEGKPYIQKSDI  2.38
70. VVGTPCYISPELCESKPYNQKSDI  2.37
71. VVGTPCYISPELCEGKPYNQKSQI  2.36
72. VVGTPCYISPELCEGKPYNQKSPI  2.35
73. VVGTPCYISPELCEYKPYNQKSDI  2.34
74. VVGTPCYISPELCEGKPYNQKSRI  2.29
75. VVGTPCYISPELCEGKPYNQRSDI  2.26
76. VVGTPCYISPELCEGKPYLQKSDI  2.21
77. VVGTPCYISPELCEGKPYNQYSDI  2.2
78. VVGTPCYISPELCEGKPYNQKSII  2.19
79. VVGTPCYISPELCELKPYNQKSDI  2.19
80. VVGTPCYISPELCEGKPYNQKSMI  2.18
81. VVGTPCYISPELCEGKPYNQKSSI  2.17
82. VVGTPCYISPELCEGKPYNQKSLI  2.15
83. VVGTPCYISPELCEFKPYNQKSDI  2.15
84. VVGTPCYISPELCEGKPYFQKSDI  2.14
85. VVGTPCYISPELCEGKPYNQMSDI  2.07
86. VVGTPCYISPELCEGKPYNQKSFI  2.04
87. VVGTPCYISPELCEGKPYNQKSVI  2.02
88. VVGTPCYISPELCEGKPYWQKSDI  2.02
89. VVGTPCYISPELCEGKPYNQVSDI  1.99
90. VVGTPCYISPELCEGKPYNQISDI  1.97
91. VVGTPCYISPELCEGKPYNQKSGI  1.82
92. VVGTPCYISPELCEGKPYNQFSDI  1.75
93. VVGTPCYISPELCEWKPYNQKSDI  1.64
94. VVGTPCYISPELCEGKPYNQKSWI  1.25

— the supplement of paper PMC10567573
